Key:
[1] = target: T1, IFNAR1 chain of the type I interferon receptor (IFNAR) (human (endogenous in PBMC), UniProt P17181 28-557); test: co-IP; lysates (50 µg total protein) of PBMC from SLE patients or healthy controls, cultured in medium alone or with 50 U/ml IFNβ for 0, 30 min, 1 h and 4 h; incubated overnight at 4°C with mouse anti-IFNAR1 (protein A-Sepharose 4B) and/or rabbit anti-IFNAR2 (protein G-Sepharose 4B); blotted for SOCS1, STAT2, Jak1 and Tyk2; conditions: partners not purified
T1 construct: IFNAR1 chain of the human type I interferon receptor, endogenous in peripheral blood mononuclear cells; precipitated with mouse anti-IFNAR1 and protein A-Sepharose; source: endogenous, lysate of PBMC from SLE patients or healthy controls
T1 sequence (looked up): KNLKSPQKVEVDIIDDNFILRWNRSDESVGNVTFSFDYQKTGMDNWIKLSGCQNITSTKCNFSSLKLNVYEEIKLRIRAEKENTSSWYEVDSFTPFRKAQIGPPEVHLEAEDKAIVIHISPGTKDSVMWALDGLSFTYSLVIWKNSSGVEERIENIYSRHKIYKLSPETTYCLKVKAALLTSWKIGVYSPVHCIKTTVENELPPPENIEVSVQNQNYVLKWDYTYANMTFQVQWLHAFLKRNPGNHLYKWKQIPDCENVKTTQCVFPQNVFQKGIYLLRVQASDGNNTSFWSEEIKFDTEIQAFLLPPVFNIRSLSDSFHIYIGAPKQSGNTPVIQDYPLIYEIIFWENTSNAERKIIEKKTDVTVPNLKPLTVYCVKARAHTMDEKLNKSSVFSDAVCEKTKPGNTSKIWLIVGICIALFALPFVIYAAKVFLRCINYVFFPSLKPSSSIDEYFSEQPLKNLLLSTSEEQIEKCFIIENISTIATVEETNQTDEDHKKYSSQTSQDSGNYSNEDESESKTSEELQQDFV

[2] = target: T2, IFNAR2 chain of the type I interferon receptor (IFNAR) (human (endogenous in PBMC), UniProt P48551 27-515); test: as above; conditions: partners not purified
T2 construct: IFNAR2 chain of the human type I interferon receptor, endogenous in peripheral blood mononuclear cells; precipitated with rabbit anti-IFNAR2 and protein G-Sepharose; source: endogenous, lysate of PBMC from SLE patients or healthy controls
T2 sequence (looked up): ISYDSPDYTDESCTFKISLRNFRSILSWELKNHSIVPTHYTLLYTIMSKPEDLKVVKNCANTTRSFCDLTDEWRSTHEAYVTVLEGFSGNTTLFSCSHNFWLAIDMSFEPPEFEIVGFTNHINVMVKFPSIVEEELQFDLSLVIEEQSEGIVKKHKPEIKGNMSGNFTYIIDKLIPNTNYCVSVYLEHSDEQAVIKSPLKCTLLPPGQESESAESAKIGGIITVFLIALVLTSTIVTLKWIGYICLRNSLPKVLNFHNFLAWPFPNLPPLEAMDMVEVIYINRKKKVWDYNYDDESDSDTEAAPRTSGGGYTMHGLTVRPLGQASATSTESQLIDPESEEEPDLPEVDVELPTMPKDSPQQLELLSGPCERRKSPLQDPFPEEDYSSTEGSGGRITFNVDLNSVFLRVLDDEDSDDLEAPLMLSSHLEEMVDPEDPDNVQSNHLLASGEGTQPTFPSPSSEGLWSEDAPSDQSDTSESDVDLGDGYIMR

- fold increase of association one hour after IFNβ over unstimulated cells [1]: < 1 fold
- fold increase of association one hour after IFNβ over unstimulated cells [2]: ~6 fold
B1: suppressor of cytokine signaling 1 (SOCS1) (natural protein, human (endogenous in PBMC), UniProt O15524 1-211, looked up)
chain: MVAHNQVAADNAVSTAAEPRRRPEPSSSSSSSPAAPARPRPCPAVPAPAPGDTHFRTFRSHADYRRITRASALLDACGFYWGPLSVHGAHERLRAEPVGTFLVRDSRQRNCFFALSVKMASGPTSIRVHFQAGRFHLDGSRESFDCLFELLEHYVAAPRRMLGAPLRQRRVRPLQELCRQRIVATVGRENLARIPLNPVLRDYLSSFPFQI
notes: SOCS1, endogenous in human peripheral blood mononuclear cells; detected by blot with anti-SOCS1; source: endogenous, lysate of PBMC from SLE patients or healthy controls

Source: paper PMC3408474, “Constitutive Phosphorylation of Interferon Receptor A-Associated Signaling Proteins in Systemic Lupus Erythematosus” (PLoS ONE, 2012)
